This is an account of results in doi:10.1101/2023.01.24.525315 (bioRxiv, 2023).

Assay [1] deals with Caf1 H3 binding pocket mutant (E235Q/D252K/E279Q) (fly (Drosophila melanogaster), UniProt Q24572 1-430, E235Q | D252K | E279Q). The experiment in a line: pull-down.
In assay [2] the target is Fly Caf1 wild-type (fly (Drosophila melanogaster), UniProt Q24572 1-430). Briefly: pull-down.
Fly Caf1 wild-type, sequence (Q24572 whole entry): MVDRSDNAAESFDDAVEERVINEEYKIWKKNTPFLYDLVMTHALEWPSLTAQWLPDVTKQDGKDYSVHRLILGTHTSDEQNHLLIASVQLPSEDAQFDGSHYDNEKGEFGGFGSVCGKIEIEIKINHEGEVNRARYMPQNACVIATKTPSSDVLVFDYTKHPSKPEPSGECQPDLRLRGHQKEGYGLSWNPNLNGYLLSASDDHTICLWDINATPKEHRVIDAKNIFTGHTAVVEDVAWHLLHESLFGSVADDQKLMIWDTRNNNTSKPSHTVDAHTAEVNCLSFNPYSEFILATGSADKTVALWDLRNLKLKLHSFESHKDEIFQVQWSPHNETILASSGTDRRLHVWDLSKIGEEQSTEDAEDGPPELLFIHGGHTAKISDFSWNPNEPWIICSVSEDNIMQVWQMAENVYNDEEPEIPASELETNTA

Caf1 H3 binding pocket mutant (E235Q/D252K/E279Q), sequence (Q24572 whole entry E235Q/D252K/E279Q): as the sequence (Q24572 whole entry) above, with E235Q, D252K, E279Q counted along it

In the case of AKLQPLSEKEKKLVRQFNTFLVRNFEKIRRCKAKR (domain or fragment, fly (Drosophila melanogaster), UniProt Q9VW15 1582-1616, looked up) [GST-CBM (Caf1-binding-motif, Ash1 1,582-1,616)], the binding result in assay [1] and in assay [2] was “binds” each time.
